Test results taken from patent US20180237497A1 (CANCER RESEARCH TECHNOLOGY, published 2018).
Positions count from the first letter of the chain named. Names may count otherwise.

Tests used:
[1] = target: T1, human IGF2^1-67 (mature insulin-like growth factor 2) (human, UniProt P01344 25-91, biotinylated (site not stated) where immobilised on the chip (Tables 1-4)); test: cell-based or functional assay
[2] = target: T1, human IGF2^1-67 (mature insulin-like …); test: SPR kinetic, Fc fusion captured by anti-human IgG, pH 7.4
Method: (§1) SPR analysis of the interaction of recombinant IGF1 and IGF2 forms with Fc-domain 11 proteins immobilised by antibody capture (CM5 chip containing monoclonal mouse anti-human IgG antibody immobilised by amine coupling). Measurements were carried out at 25° C. in HBS-EP buffer (pH 7.4).
(§2) Final kinetic analysis of mutants by SPR was conducted using a Biacore T200 biosensor at 25° C. in either HBS-EP (10 mM HEPES pH 7.4, 150 mM NaCl, 3 mM EDTA, and 0.005% (v/v) surfactant P20) or MES-EP (20 mM MES pH 6.5, 150 mM NaCl, 3 mM EDTA, and 0.005% (v/v) surfactant P20) at a flow-rate of 40 μL min⁻¹. […] For the analysis of the Fc-domain 11^AB5 interaction, approximately 50 RU of a biotinylated IGF2:biotinylated ubiquitin mixture (1:8 proportion) was immobilized on the CM5-streptavidin chip. This interaction was also analysed by immobilizing the Fc-domain 11^AB5 and Fc-domain 11^AB5-RHH (or Fc-domain 11^I1572A as control) by Human Antibody Capture (monoclonal mouse anti-human IgG antibody immobilised on a CM5 chip by amine coupling, GE Healthcare) with and without human IgG1 Fc fragment (Bethyl Laboratories, UK) in the control flow cell. […] T200 BiaEvaluation software (GE Healthcare) was used to fit the resulting curves according to a 1:1 binding model. Steady state affinities were determined using the kinetic data, taking the response average at 5 seconds before injection end and for 5 seconds average. Thermodynamic data was performed across the temperature range of 10° C. to 30° C., van't Hoff and Erying plots generated and ΔH, −TΔS and ΔG values determined as previously described.

[3] = target: pro-IGF2^1-104 (UniProt P01344 25-128); test: as above
Method: as §1, §2

[4] = target: T2, pro-IGF2^1-156 (UniProt P01344 25-180); test: as above
T2 construct: range 1-156
Method: as §1, §2

[5] = target: T1, human IGF2^1-67 (mature insulin-like …); test: SPR steady state, biotin-IGF2 on chip, pH 7.4
In short: (§3)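 Biacore SPR at 25 °C in HBS-EP pH 7.4 or MES-EP pH 6.5, flow 40 μL/min; ~50 RU biotin-IGF2:biotin-ubiquitin (1:8) on streptavidin chip, or Fc-domain 11 captured via anti-human IgG. Kinetics fitted to 1:1 model; steady-state affinity from response averaged 5 s before injection end.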

[6] = target: T1, human IGF2^1-67 (mature insulin-like …); test: SPR steady state, biotin-IGF2 on chip
Method: as §2

[7] = target: T1, human IGF2^1-67 (mature insulin-like …); test: SPR kinetic, biotin-IGF2 on chip
Method: as §2

[8] = target: T1, human IGF2^1-67 (mature insulin-like …); test: SPR
Source text: Surface plasmon resonance (SPR) binding analysis of recombinant M6P/IGF2R domain 11 mutants interaction with IGF2. Kon indicates association (on) rate; koff, dissociation (off) rate; RU, response units. Binding to IGF2 assessed with BIAcore T200 using purified biotinylated IGF2 and IGF1 on a streptavidin biosensor chip. Recombinant proteins were expressed either in E. coli and/or P. pastoris. All the mutants in the FG and CD loops are on the domain 11^AB5 background for the AB loop unless otherwise stated. All experiments were carried out at 25° C. in HBS-EP buffer (pH 7.4), were repeated 2-5 times on two independent BIAcore chips. nd=not determined. Data for KD expressed as mean of each experiment, and means of kon and koff are shown.
as §2, with “model.” for “model. Steady state affinities were determined using the kinetic data, taking the response average at 5 seconds before injection end and for 5 seconds average. Thermodynamic data was performed across the temperature range of 10° C. to 30° C., van't Hoff and Erying plots generated and ΔH, −TΔS and ΔG values determined as previously described.”

[9] = target: T1, human IGF2^1-67 (mature insulin-like …); test: SPR (Biacore T200, 25 °C, HBS-EP pH 7.4); ΔΔG° = RT ln(KD mutant / KD domain 11^AB3); box AB+FG
Method: (§4) Boxes show the change in the binding free energy contribution, ΔΔGº, for the indicated mutants. The loop/s that contains the mutation/s is indicated in each box. The ΔΔGº values were calculated as ΔΔGº=ΔGº domain 11^mutant−ΔGº domain 11^AB3=RTln(KD domain 11^mutant/KD domain 11^AB3). Additive and non-additive contributions of single point mutations are shown when calculated with a box solid line and dashed line, respectively.
as §2, with “average.” for “average. Thermodynamic data was performed across the temperature range of 10° C. to 30° C., van't Hoff and Erying plots generated and ΔH, −TΔS and ΔG values determined as previously described.”

[10] = target: T1, human IGF2^1-67 (mature insulin-like …); test: SPR kinetic, biotin-IGF2 on chip, pH 7.4
In short: as §3

[11] = target: T1, human IGF2^1-67 (mature insulin-like …); test: SPR, biotin-IGF2 on chip, pH 7.4
[12] = target: T1, human IGF2^1-67 (mature insulin-like …); test: SPR (Biacore T200, 25 °C, HBS-EP pH 7.4); ΔΔG° = RT ln(KD mutant / KD domain 11^AB3); box AB+CD
Method: as §4
(§5) Final kinetic analysis of mutants by SPR was conducted using a Biacore T200 biosensor at 25° C. in either HBS-EP (10 mM HEPES pH 7.4, 150 mM NaCl, 3 mM EDTA, and 0.005% (v/v) surfactant P20) or MES-EP (20 mM MES pH 6.5, 150 mM NaCl, 3 mM EDTA, and 0.005% (v/v) surfactant P20) at a flow-rate of 40 μL min⁻¹. […] This interaction was also analysed by immobilizing the Fc-domain 11^AB5 and Fc-domain 11^AB5-RHH (or Fc-domain 11^I1572A as control) by Human Antibody Capture (monoclonal mouse anti-human IgG antibody immobilised on a CM5 chip by amine coupling, GE Healthcare) with and without human IgG1 Fc fragment (Bethyl Laboratories, UK) in the control flow cell. […] Steady state affinities were determined using the kinetic data, taking the response average at 5 seconds before injection end and for 5 seconds average.

[13] = target: T1, human IGF2^1-67 (mature insulin-like …); test: SPR (Biacore T200, 25 °C, HBS-EP pH 7.4); ΔΔG° = RT ln(KD mutant / KD domain 11^AB3); box AB+CD+FG, dashed outline
Method: as §4, §5

[14] = target: T1, human IGF2^1-67 (mature insulin-like …); test: SPR kinetic, biotin-IGF2 on chip, pH 6.5
Method: Measurements were carried out at 25° C. in MES-EP buffer, 20 mM MES pH 6.5, 150 mM NaCl, 3 mM EDTA, and 0.005% (v/v) surfactant P20). Data for KD expressed as mean of each experiment, and means of kon and koff are shown.
as §2

T1 sequence (P01344 25-91): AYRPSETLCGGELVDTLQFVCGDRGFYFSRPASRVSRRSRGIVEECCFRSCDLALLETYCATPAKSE
pro-IGF2^1-104, sequence (P01344 25-128 limits assumed): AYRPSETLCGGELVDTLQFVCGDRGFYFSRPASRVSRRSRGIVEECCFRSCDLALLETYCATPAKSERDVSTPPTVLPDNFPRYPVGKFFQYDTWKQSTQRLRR
T2 sequence (P01344 25-180 limits assumed): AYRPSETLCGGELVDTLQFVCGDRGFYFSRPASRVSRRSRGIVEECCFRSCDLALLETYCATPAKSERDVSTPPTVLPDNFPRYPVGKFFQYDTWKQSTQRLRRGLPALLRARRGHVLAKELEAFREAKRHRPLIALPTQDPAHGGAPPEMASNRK

B1: human IgG1 Fc-domain 11^AB5 fusion protein (Fc fusion)
chain: NEHDDCQVTNPSTGHLFDLSSLSGRAGFTAAYAKGWGVYMSICGENENCPPGVGACFGQTRISVGKANKRLRYVDQVLQLVYKDGSPCPSKSGLSYKSVISFVCRPEAGPTNRPMLISLDKQTCTLFFSWHTPLACEQAT
notes: Made in HEK293T; also called Fc-domain II^AB5; pHLSec-AB5-hIgG1; not shown: human IgG1 Fc
IC50, cell viability of HT29/219 in serum free conditions [1]: 1700 nM
IC50, cell viability of Hep3B in serum free conditions [1]: 35500 nM
IC50, cell viability of Huh7 in serum free conditions [1]: 1200 nM
Kd [2]: 3.89 nM
koff [2]: 0.025 s⁻¹
kon [2]: 6.47e+06 M⁻¹ s⁻¹
Kd [3]: 0.54 nM
koff [3]: 0.0069 s⁻¹
kon [3]: 1.29e+07 M⁻¹ s⁻¹
Kd [4]: 0.21 nM
koff [4]: 0.0009 s⁻¹
kon [4]: 4.19e+06 M⁻¹ s⁻¹

B2: domain 11^AB3 P1597H (receptor)
chain: MKSNEHDDCQVTNPSTGHLFDLSSLSGRAGFTAAYSKSGVVYMSICGENENCPPGVGACFGQTRISVGKANKRLRYVDQVLQLVYKDGSHCPSKSGLSYKSVISFVCRPEAGPTNRPMLISLDKQTCTLFFSWHTPLACEQATECSV
notes: See m5; also called AB3 + 62B (FG-P1597H)
Kd [5]: 1.76 nM
Kd [6]: 1.76 nM
Kd [7]: 1.23 nM
koff [7]: 0.013 s⁻¹
kon [7]: 1.06e+07 M⁻¹ s⁻¹
fold change of KD against domain 11^AB3 [8]: 10 fold
fold reduction of koff against domain 11^AB3 [8]: 4 fold
ΔΔG [9]: -1.49 kcal/mol
Kd [10]: 1.23 nM
koff [10]: 0.013 s⁻¹
kon [10]: 1.06e+07 M⁻¹ s⁻¹

B3: domain 11^AB3 P1597H HI^23D (receptor)
chain: B2 chain with D123H, K124F, T126S
notes: See m5; Only koff printed
koff [11]: 0.012 s⁻¹

B4: domain 11^AB3 Q1569R (receptor)
chain: B2 chain with Q62R, H90P
notes: See m5; also called AB3 + 73E (CD-Q1569R)
Kd [5]: 3.15 nM
Kd [6]: 3.15 nM
Kd [7]: 2.3 nM
koff [7]: 0.031 s⁻¹
kon [7]: 1.36e+07 M⁻¹ s⁻¹
Kd [10]: 2.3 nM
koff [10]: 0.031 s⁻¹
kon [10]: 1.36e+07 M⁻¹ s⁻¹
ΔΔG [12]: -1.12 kcal/mol

B5: domain 11^AB3 Q1569R P1597H (receptor)
chain: B2 chain with Q62R
notes: See m5
Kd [5]: 1.73 nM
ΔΔG [13]: -1.68 kcal/mol
Kd [10]: 0.9 nM
koff [10]: 0.0153 s⁻¹
kon [10]: 1.89e+07 M⁻¹ s⁻¹
Kd [14]: 0.47 nM
koff [14]: 0.0091 s⁻¹
kon [14]: 1.99e+07 M⁻¹ s⁻¹

B6: domain 11^AB5 HI^23D (receptor)
chain: B2 chain with S36A, S38G, G39W, V40G, H90P, D123H, K124F, T126S
notes: See m5; Only koff printed; other cells np (no protein)
koff [11]: 0.012 s⁻¹

B7: domain 11^AB5 Q1569R (receptor)
chain: B2 chain with S36A, S38G, G39W, V40G, Q62R, H90P
notes: See m5
Kd [5]: 3.22 nM
Kd [10]: 2.24 nM
koff [10]: 0.0175 s⁻¹
kon [10]: 8.04e+06 M⁻¹ s⁻¹
ΔΔG [12]: -1.13 kcal/mol

B8: domain 11^AB5 Q1569R P1597H (receptor)
chain: B2 chain with S36A, S38G, G39W, V40G, Q62R
notes: See m5
Kd [5]: 5.4 nM
ΔΔG [13]: -1.22 kcal/mol
Kd [10]: 1.95 nM
koff [10]: 0.0058 s⁻¹
kon [10]: 3.2e+06 M⁻¹ s⁻¹
Kd [14]: 1.46 nM
koff [14]: 0.0034 s⁻¹
kon [14]: 2.37e+06 M⁻¹ s⁻¹

B9: domain 11^AB5 Q1569R P1597H S1602H G1603K (receptor)
chain: B2 chain with S36A, S38G, G39W, V40G, Q62R, S95H, G96K
notes: as for B6
koff [11]: 0.005 s⁻¹

B10: domain 11^AB5 Q1569R P1597K S1602H G1603K (receptor)
chain: B2 chain with S36A, S38G, G39W, V40G, Q62R, H90K, S95H, G96K
notes: as for B6
koff [11]: 0.008 s⁻¹
